Test results from publication PMC9907207 (Nature Communications, 2023).

B1: GAR05 Fab (Fab, V domains shown)
VH: EVQLVQSGGDLVQPGGSLRLSCAVSGFTVSRNYMTWVRQAPGRGLEWVSLIYPGGSAFYADSVKGRFTISRDNSKNTLYLQMNSLRVEDTAVYYCARDPVSTGHYHDSDYWGQGTLVTVSS
VL: DIQMTQSPSALSASVGDRVTITCQASQDINKFLNWYQQKPGKAPKLLIYDASNLETGVPSRFSGGGSGTDFTFTISSLQPEDIATYYCHQYDNLPRTFGQGTKVELK
notes: also called GAR05 Fab fragment; source: ExpiCHO, purified (Talon resin, S200 SEC)
B2: GAR03 Fab (Fab, V domains shown)
VH: QVQLVQSGAEVKKPGASVKVSCKASGYTFSSYDINWVRQAPGQGLEWMGWMSPNSGNTGYAQKFQGRVTMTRSTSMSTAYMELSSLRSEDTAVYFCARMSSSLTNYLDYWGQGTLVTVSS
VL: SYVLTQPPSVAVAPGQTARIRCGENDIGSKNVHWYQQKSGQAPVLVVYDDSDRPSGIPERFSGSNSGNTATLTISRVEAGDEADYYCQVWDSTGDHPDVVFGGGTKLTVL
notes: also called GAR03 antibody Fab; source: ExpiCHO, purified (Talon resin, S200 SEC)

Target: T1, D614G VFLIP spike trimer (SARS-CoV-2, ancestral with D614G, VFLIP …, stabilised)
T1 construct: also called stabilized D614G ancestral trimeric spike ("VFLIP"); trimeric spike
Assay: cryo-EM structure
Settings: both partners purified

Row | Binder | stoichiometry N
1 | B1 | 3 Fabs per spike trimer
2 | B2 | 1 Fab per spike trimer
